Consider two proteins from publication PMC8115694, “Distinct axial and lateral interactions within homologous filaments dictate the signaling specificity and order of the AIM2-ASC inflammasome” (Nature Communications, 2021).

Data set [1] deals with the molecule itself. Kind of data set: cryo-EM structure; helical reconstruction of the untagged AIM2 (1-117) filament; 2.75 uM protein cleaved for 30 min with 6 uM TEVp.
Data set [2] deals with the molecule itself. Kind of data set: confocal fluorescence microscopy of fluor-labelled recombinant filaments; two differentially labelled (Alexa488, Dylight550) MBP-tagged PYD populations mixed at 1:1 ratio (1 uM each), polymerisation triggered by cleaving MBP with TEVp.

B1: AIM2^PYD filament construct with ~20 a.a. of the unstructured linker (residues 1-117), untagged (domain or fragment, human, UniProt O14862 1-117, looked up)
chain: MESKYKEILLLTGLDNITDEELDRFKFFLSDEFNIATGKLHTANRIQVATLMIQNAGAVSAVMKTIRIFQKLNYMLLAKRLQEEKEKVDKQYKSVTKPKPLSQAEMSPAASAAIRND
notes: AIM2 (absent in melanoma 2), human, residues 1-117: PYD plus ~20 a.a. of the unstructured linker; Helical filament; 2.75 uM protein cleaved for 30 min with 6 uM TEVp before freezing; also called AIM2^IRND; source: MBP cleaved with TEVp; not shown: MBP, N-terminal, cleaved
B1: the binding result in data set [1] is recorded as “binds”.

B2: AIM2^PYD (residues 1-94) S94C, fluorophore-labelled (domain or fragment, human, UniProt O14862 1-94, looked up)
chain: MESKYKEILLLTGLDNITDEELDRFKFFLSDEFNIATGKLHTANRIQVATLMIQNAGAVSAVMKTIRIFQKLNYMLLAKRLQEEKEKVDKQYKC
modifications: fluorophore label (Alexa488 or Dylight550; FRET donor or acceptor); S94C for fluorophore labeling
notes: AIM2, human, pyrin domain, residues 1-94; Polymerisation is triggered by cleaving MBP with TEVp; the protein stands as nascent monomer or as preassembled filament; also called MBP-AIM2^PYD; source: MBP cleaved with TEVp in the assay; not shown: MBP, N-terminal, cleaved
On to B2, for which the binding result in data set [2] is listed as “binds”.
